Assay [1] has as its target T1, endothelin receptor subtype A (ETA-R) expressed on the surface of Gli-7 glioblastoma cells (human, UniProt P25101 21-427).
T1 construct: whole, on cells; also called ETA-R on Gli-7; ETAR on glioblastoma cells
T1 sequence (looked up): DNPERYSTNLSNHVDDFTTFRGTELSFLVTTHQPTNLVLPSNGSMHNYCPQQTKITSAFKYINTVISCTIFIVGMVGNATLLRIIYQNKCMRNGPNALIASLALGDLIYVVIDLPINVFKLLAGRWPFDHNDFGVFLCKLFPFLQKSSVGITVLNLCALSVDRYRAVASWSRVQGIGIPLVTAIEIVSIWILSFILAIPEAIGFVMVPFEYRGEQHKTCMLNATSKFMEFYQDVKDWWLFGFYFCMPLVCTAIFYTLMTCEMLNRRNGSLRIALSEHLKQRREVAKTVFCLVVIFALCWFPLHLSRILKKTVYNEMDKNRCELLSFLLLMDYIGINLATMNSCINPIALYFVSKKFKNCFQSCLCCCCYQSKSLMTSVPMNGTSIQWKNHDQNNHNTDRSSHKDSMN
The experiment in a line: flow cytometry on Gli-7 glioblastoma cells. Background: A flow cytometer gives signals particle by particle.

Assay [2] has as its target T2, endothelin receptor subtype A (ETA-R) expressed on stably transfected CHO cells (CHO-ETAR) (UniProt P25101 21-427, limits assumed).
T2 construct: whole, on cells; also called endothelin type A receptor
T2 sequence (looked up): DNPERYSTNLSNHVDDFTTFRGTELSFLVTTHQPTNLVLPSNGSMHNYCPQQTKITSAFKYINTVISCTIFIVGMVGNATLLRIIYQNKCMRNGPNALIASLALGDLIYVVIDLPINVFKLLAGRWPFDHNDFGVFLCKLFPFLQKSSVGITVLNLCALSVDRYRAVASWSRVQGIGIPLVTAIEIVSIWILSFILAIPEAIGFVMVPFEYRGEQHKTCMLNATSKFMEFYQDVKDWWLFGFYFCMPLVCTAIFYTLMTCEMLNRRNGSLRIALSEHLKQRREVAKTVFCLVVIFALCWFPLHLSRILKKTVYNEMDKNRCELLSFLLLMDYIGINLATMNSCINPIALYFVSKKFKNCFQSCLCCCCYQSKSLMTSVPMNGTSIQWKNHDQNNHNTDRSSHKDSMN
The assay is described as follows: flow cytometry on CHO-ETAR cells, apparent Kd, one-site fit, with or without 100 nM ET1. The method, then: The fluorescence is quantified by flow cytometry on an FACSCalibur™ (BD Bioscience). A range of concentrations of antibodies lying between, at a maximum, 1 μM and, at a minimum, […] was incubated for 2 hours at 4° C. in the presence or not of 100 nM ET1 (preincubated for 30 minutes at 4° C.). At 90% confluence, the cells are detached in the presence of versene and then aliquoted in tubes (300 μl/300,000 cells) in the presence of a saturation buffer (PBS-SNC 5%-BSA 0.1%) stored at 4° C. After three washes in PBS buffer, 300 μl of secondary antibody labeled with Alexa Fluor™ 488 (AF-488) diluted to 1/400 was added and incubated for 60 minutes at 4° C. (Goat anti-mouse IgG, Invitrogen-ref A10684). For each antibody concentration point, after three washes in PBS, 10,000 cells were counted with flow cytometry.
The data were analysed in the GraphPad Prism software and the curves modelled according to the parameter: a specific binding site. […] The binding of RA63 was therefore not modified in the presence of ET1.

B1: Rendomab-A63 (antibody, mouse IgG2b, V domains shown)
VH: EVQLVESGGGLVQPKGSLKLSCAASGFTFNIYAMNWIRQAPGKGLEWIARIRSKSNNYATYYADSVKDRFTISRDDSQNMVYLQMNNLKTEDTAMYYCVSSYYSGSFFAYWGQGTLVTVSA
VL: DVLMTQTPLSLPVSLGDQASISCRSSQSIVYSNGKIYLEWYLQKPGQSPKLLIYKVSNRFSGVPDRFSGSGSGTDFTLKISRVEAEDLGVYYCFQGSHLPLTFGAGTKLELKR
notes: also called RA63; monoclonal murine antibody from the hybridoma CNCM I-5250
On to B1, for which the Kd in assay [1] was around 15 nM; in assay [2] it was around 0.5 nM.

Values taken from patent US20220089755A1 (COMMISSARIAT A L ENERGIE ATOMIQUE ET AUX ENERGIES …, published 2022).
